Data taken from paper PMC8085926.

Substrate: CCC(=O)SCCNC(=O)CCNC(=O)[C@H](O)C(C)(C)COP(=O)(O)OP(=O)(O)OC[C@H]1O[C@@H](n2cnc3c(N)ncnc32)[C@H](O)[C@@H]1OP(=O)(O)O
Assay: purified protein
Conditions: hydrolysis of propionyl-CoA to propionate; conditions only in supplement

B1: HiYciA (Haemophilus influenzae Rd KW20) (protein)
chain: MSANFTDKNGRQSKGVLLLRTLAMPSDTNANGDIFGGWIMSQMDMGGAILAKEIAHGRVVTVAVESMNFIKPISVGDVVCCYGQCLKVGRSSIKIKVEVWVKKVASEPIGERYCVTDAVFTFVAVDNNGRSRTIPRENNQELEKALALISEQPL
  Km: 26.84 µM
  kcat: 490 s⁻¹
  kcat/Km: 1.83e+07 M⁻¹ s⁻¹

B2: PP_4975 (Pseudomonas putida KT2440) (protein)
chain: MNFHTRKWVKPEDLNPNGTLFGGSLLRWIDEEAAIYAIVQLGNQRVVTKYMSEINFVSASRQGDIIELGITATAFGRTSITLKCEVRNKITRKSILTVDKMVFVNLGEDGLPAAHGRTEIKYVQDQFPDSAVE
  Km: 144.13 µM
  kcat: 1300 s⁻¹
  kcat/Km: 9.02e+06 M⁻¹ s⁻¹
